Test results as given in article PMC3078890, “Sponge non-metastatic Group I Nme gene/protein - structure and function is conserved from sponges to humans” (BMC Evolutionary Biology, 2011).

Target: the molecule itself
Assay: cross-linking; 8 ug protein in PBS at room temperature, 25 mM glutaraldehyde for 5 min, quenched with 0.2 M Tris-HCl pH 7.5; 12.5% SDS-PAGE, Coomassie staining

B1: sponge NmeGp1Sd protein (Suberites domuncula Group I Nme), recombinant (natural protein, UniProt Q5DIW9 1-151, looked up)
chain: MTTERTYIMIKPDGVQRGLMGDIIKRFEQKGFKMVAMKFMQPSEKLLSEHYADLSKKPFFPGLVKFMATSPVCCMVWEGQGAVATGRQMLGETDPAKSKPGTIRGDFCIHIGRNICHGSDSVESANKEIALWFKPEELVDWTPTEQQWIYE
notes: NmeGp1Sd (formerly Nm23-SD1), Group I Nme / nucleoside diphosphate kinase of the marine sponge Suberites domuncula; cDNA cloned into pET15b (NdeI/BamHI) with primers from the ATG start codon to the stop codon; Cloned downstream of the thrombin site of pET15b; residues of the vector may remain at the N-terminus after cleavage; also called Nm23-SD1; not shown: His6, N-terminal, cleaved
stoichiometry N: 6
